Positions count from the first letter of the chain named.
Experiments:
Assay in all cases: fluorescence anisotropy
InrS H21L = biological target: T1, InrS H21L (Synechocystis PCC 6803, UniProt Q55554 61-167, H81L)
T1 sequence: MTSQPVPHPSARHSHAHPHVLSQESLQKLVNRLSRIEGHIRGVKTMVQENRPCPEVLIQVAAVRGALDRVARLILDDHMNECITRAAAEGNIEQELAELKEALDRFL

InrS = biological target: T2, InrS (Synechocystis PCC 6803, UniProt Q55554)
T2 sequence: T1 sequence with L21H

InrS H21E = biological target: T3, InrS H21E (Synechocystis PCC 6803, UniProt Q55554 61-167, H81E)
T3 sequence: T1 sequence with L21E

Measured: binding result

B1: nikProFA (dsDNA)
DNA 1: AAATCCATATCCCCCTTCCCCCCAGAGGGTATT
DNA 2: AATACCCTCTGGGGGGAAGGGGGATATGGATTT
binds: InrS H21L | InrS | InrS H21E

— PMC5365139
